Test results from patent publication US20250295796A1, “CELL PENETRATING POLYPEPTIDES (CPPS) AND THEIR USE IN HUMAN THERAPY” (RDP PHARMA AG, priority 2021, published 2025).

Assays:
[1] = test system: HEPG2; experiment: Monolayer assay, 96h treatment, HEPG2; type: cell-based, human; conditions: HEPG2, 96h treatment
Method: (§1) Monolayer Assay Propidium Iodid (PI). Cells were harvested from exponential phase cultures, counted and depending on the cell line 3.000 to 20.000 cells were plated in 96-well flat-bottom microtiter plates After a 24 h recovery period to allow cells to resume exponential growth, 10 μl of culture medium (four control wells/plate) or culture medium with the test compound were added by a liquid handling robotic system and treatment continued for four days. Compounds were applied in half-log increments at 10 concentrations in duplicate. Three independent experiments were performed. Cells were then washed with 200 μl PBS to remove dead cells followed by addition of 200 μl of a solution containing 7 μg/ml propidium iodide (PI) and 0.1% (v/v) Triton X-100. After an incubation period of 1-2 h at room temperature, fluorescence (FU) was measured using the Cytofluor 4000 microplate reader (excitation λ=530 nm, emission λ=620 nm) to quantify the amount of attached viable cells. Concentrations required for 50% inhibition of cell growth (IC50) were calculated by non-linear regression (log[conc. of inhibitor]versus response (% T/C)) using the analysis software GraphPad Prism®, Prism 5 for windows, version 5.01 (GraphPad Software Inc., CA).
(§2) CROMOC36—in vitro activity Human hepatocellular carcinoma cell lines IC50 values of CROMOC36 and Sorafenib, 96h treatment. […]

[2] = test system: PATU8902; experiment: Propidium iodide monolayer assay, PATU8902; type: cell-based, human; conditions: PATU8902, four days
Method: as §1, with “Concentrations required for 50% inhibition of cell growth (IC50) were calculated by non-linear regression (log[conc. of inhibitor]versus response (% T/C)) using the analysis software GraphPad Prism®, Prism 5 for windows, version 5.01 (GraphPad Software Inc., CA).” left out
(§3) CROMOC36—in vitro activity Human pancreatic carcinoma cell lines. […] Antitumor activity was assessed after four days of CROMOC36 treatment using a propidium iodide based monolayer proliferation assay. […]

[3] = test system: HUPT3; experiment: Propidium iodide monolayer assay, HUPT3; type: cell-based, human; conditions: HUPT3, four days
Method: as §1, with “Concentrations required for 50% inhibition of cell growth (IC50) were calculated by non-linear regression (log[conc. of inhibitor]versus response (% T/C)) using the analysis software GraphPad Prism®, Prism 5 for windows, version 5.01 (GraphPad Software Inc., CA).” left out
as §3

[4] = test system: human colon carcinoma with null p53 (HCT116 p53−/−) xenograft; experiment: HCT116 p53-/- xenograft, CROMOC36 versus nuclease impaired CROMOC60; type: in vivo, mouse; conditions: s.c. 4 mg/kg on days 0, 1, 2, 3, 6, 7, 8, 9, 10, 20, 22, 24
Method: FIG. 7: HCT116 p53−/− human colon carcinoma xenograft. Treatment on advanced tumors (volume >50 mm^3). Dose: CROMOC36 4 mg/kg; CROMOC60 4 mg/kg. Treatment: s.c. administration on day 0, 1, 2, 3, 6, 7, 8, 9, 10, 20, 22, 24.
A study was conducted to test the antitumor efficacy of CROMOC36 on an advanced human colon carcinoma with null p53 (HCT116 p53−/−) xenograft model and compare it to a vehicle or a nuclease impaired version CROMOC60 treatment group. CROMOC60 is no more catalytically active as a nuclease but is able to be transported to the nucleus of a cell. This study was also designed to proof that the active principle of the tumor growth inhibiting activity of CROMOC is the nuclease activity in vivo. CROMOC36 and CROMOC60 were both administered subcutaneously (s.c.) at 4 mg/kg dose on the days 0, 1, 2, 3, 6, 7, 8, 9, 10, 20, 22, 24. […] This also proofs that CROMOC36 can serve as a valid DNA DSB reagent.

[5] = test system: IMR32 human neuroblastoma xenograft; experiment: IMR32 human neuroblastoma xenograft model; type: in vivo, mice; conditions: q14dx2
Source text: FIG. 11: IMR32 s.c. implanted. Treatment on xenograft mice with advanced tumors (volume >50 mm^3). Variation in tumor volume expressed as percentage with respect to initial volume (day 0; designated as 100%). Final measurements for vehicle (PBS) and Doxorubicin groups were taken on day 42. For the remaining groups, final measurements were taken on day 63, the termination day of the experiment. Growth reduction compared to controls on day 42 (p<0.01).
The aim of this study was to assess the in vivo efficacy of CROMOC36 on a IMR32 human neuroblastoma xenograft model. CROMOC36 was administered subcutaneously (s.c.) at intervals of two weeks (q14dx2) at two different doses (32 mg/Kg) and also in combination with doxorubicin administered intravenously (i.v.) (32/kg CROMOC36+4+4 mg/Kg doxorubicin, s.c and i.v., q14dx2). Doxorubicin was also used alone as a reference compound (8 mg/kg, i.v., q14dx2). Vehicle was PBS.

[6] = test system: LIXF 575L; experiment: Monolayer assay, 96h treatment, LIXF 575L; type: cell-based, human
Method: as §1, §2

[7] = test system: 4T1 breast tumor lung metastasis; experiment: Organ-distribution in 4T1 breast tumor lung metastasis mouse model; conditions: four hours after i.v. 8 mg/kg, ex vivo total photon flux
Method: In vivo organ-distribution of CROMOC36-AF680 molecules in tumor containing mice. First orthotopic allograft 4T1 breast tumor lung metastasis mouse model was analyzed for CROMOC-AF680 distribution in vivo (FIG. 19A). Four hours after i.v. injection of 8 mg/kg of the CROMOC molecule labeled with the AF680 fluorescent dye, lungs containing 4T1cell metastasis were isolated and fluorescence intensity was assessed ex vivo (total photon flux shown on X-axis logarithmic scale).

[8] = test system: PAXF 546L; experiment: Propidium iodide monolayer assay, PAXF 546L; type: cell-based, human; conditions: four days
Method: as §1, with “Concentrations required for 50% inhibition of cell growth (IC50) were calculated by non-linear regression (log[conc. of inhibitor]versus response (% T/C)) using the analysis software GraphPad Prism®, Prism 5 for windows, version 5.01 (GraphPad Software Inc., CA).” left out
as §3

B1: CROMOC36: single chain PvuII endonuclease fused at its C-terminus to DDM36, PEGylated final product used in the Examples (protein)
chain: MSHPDLNKLLELWPHIQEYQDLALKHGINDIFQDNGGKLLQVLLITGLTVLPGREGNDAVDNAGQEYELKSINIDLTKGFSTHHHMNPVIIAKYRQVPWIFAIYRGIAIEAIYRLEPKDLEFYYDKWERKWYSDGHKDINNPKIPVKYVMEHGTKIYGSGGSGGSSHPDLNKLLELWPHIQEYQDLALKHGINDIFQDNGGKLLQVLLITGLTVLPGREGNDAVDNAGQEYELKSINIDLTKGFSTHHHMNPVIIAKYRQVPWIFAIYRGIAIEAIYRLEPKDLEFYYDKWERKWYSDGHKDINNPKIPVKYVMEHGTKIYGNSGSGKKKKKGKGSGLGSGKKKDPLGSGLGSGKKKKKGKGSGLGSGKKKDPLGST
modifications: PEGylated; peptide, CROMOC36
**Q.** Which results are given for B1?
**A.** IC50 [1]: 13.7 nM; IC50 [2]: 2.33 nM; IC50 [3]: ~10 nM; progression of HCT116 p53−/− human colon carcinoma as compared to vehicle control [4]: significantly inhibited; tumor growth inhibition compared to controls ([5]; CROMOC36 32/kg s.c. + doxorubicin 4+4 mg/Kg i.v.): 89%; tumor growth inhibition (TGI) compared to controls ([5]; single agent, CROMOC36 32 mg/Kg s.c., doxorubicin 8 mg/kg i.v.): 82%; IC50 [6]: 17 nM; enrichment in lungs of breast tumor metastasis containing animals versus tumor free animals [7]: more than 10.000 ×; IC50 [8]: 6.49 nM
